The data set addresses Bxb1 serine integrase with ssrA degradation tag (Mycobacteriophage Bxb1?) (UniProt Q9B086). Put plainly: cell_activity. The following applies: attB x attP inversion of P7 promoter, switched cells 42 C vs 37 C; E. coli Nissle.

Turning to “GGGTTTGTACCGTACACCACTGAGACCGCGGTGGTTGACCAGACAAACCACGA (double strand) [Bxb1 attP]”, the activity was above 100 fold.

As for “TCGGCCGGCTTGTCGACGACGGCGGTCTCCGTCGTCAGGATCATCCGGGC (double strand) [Bxb1 attB]”, the activity was above 100 fold.
